T1: keto acyl synthase (KS) domain of FAS labeled with Flag at the N-terminal (UniProt P19096 1-406, limits assumed)
T1 construct: domain: keto acyl synthase (KS); Subcloned into pFLAG-CMV2 from the full-length FAS cDNA
T1 sequence (looked up): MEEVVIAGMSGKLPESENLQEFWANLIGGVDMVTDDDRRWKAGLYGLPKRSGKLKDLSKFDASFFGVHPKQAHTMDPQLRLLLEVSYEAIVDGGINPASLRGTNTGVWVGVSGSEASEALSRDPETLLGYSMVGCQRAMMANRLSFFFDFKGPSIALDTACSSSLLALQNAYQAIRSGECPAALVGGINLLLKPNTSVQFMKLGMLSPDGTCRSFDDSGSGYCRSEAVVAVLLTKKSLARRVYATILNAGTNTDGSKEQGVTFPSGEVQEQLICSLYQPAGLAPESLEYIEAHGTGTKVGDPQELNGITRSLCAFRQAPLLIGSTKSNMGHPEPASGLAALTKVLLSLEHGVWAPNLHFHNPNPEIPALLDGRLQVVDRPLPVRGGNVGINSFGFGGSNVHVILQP

T2: malonyl/acetyl transferase (MAT) domain of FAS labeled with Flag at the N-terminal (UniProt P19096 429-817, limits assumed)
T2 construct: domain: malonyl/acetyl transferase (MAT); Subcloned into pFLAG-CMV2 from the full-length FAS cDNA
T2 sequence (looked up): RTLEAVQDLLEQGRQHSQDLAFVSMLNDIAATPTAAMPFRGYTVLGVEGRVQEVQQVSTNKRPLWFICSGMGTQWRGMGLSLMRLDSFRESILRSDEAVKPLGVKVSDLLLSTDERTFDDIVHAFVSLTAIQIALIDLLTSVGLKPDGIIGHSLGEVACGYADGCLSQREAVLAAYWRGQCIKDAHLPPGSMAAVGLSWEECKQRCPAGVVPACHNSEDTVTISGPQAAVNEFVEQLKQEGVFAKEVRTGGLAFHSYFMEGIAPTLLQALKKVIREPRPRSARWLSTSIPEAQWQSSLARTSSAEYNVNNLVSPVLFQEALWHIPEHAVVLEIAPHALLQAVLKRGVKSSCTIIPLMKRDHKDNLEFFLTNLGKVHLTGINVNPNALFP

B1: keto reductase (KR) domain of FAS labeled with Flag at the N-terminal (enzyme, UniProt P19096 1857-2111, looked up, not shown: small tags and cut ends)
chain: VLPGAQPTLISAISKTFCPAHKSYIITGGLGGFGLELARWLVLRGAQRLVLTSRSGIRTGYQAKHIREWRRQGIQVLVSTSNVSSLEGARALIAEATKLGPVGGVFNLAMVLRDAMLENQTPELFQDVNKPKYNGTLNLDRATREACPELDYFVAFSSVSCGRGNAGQTNYGFANSTMERICEQRRHDGLPGLAVQWGAIGDVGIVLEAMGTNDTVIGGTLPQRISSCMEVLDLFLNQPHAVLSSFVLAEKKAVA
notes: domain: keto reductase (KR); Subcloned into pFLAG-CMV2 from the full-length FAS cDNA
B2: acylcarrier protein (ACP) domain of FAS labeled with Flag at the N-terminal (enzyme, UniProt P19096 2112-2192, looked up, not shown: small tags and cut ends)
chain: HGDGDTQRDLVKAVAHILGIRDLAGINLDSTLADLGLDSLMGVEVRQILEREHDLVLPMREVRQLTLRKLQEMSSKTDSAT
notes: domain: acylcarrier protein (ACP); Subcloned into pFLAG-CMV2 from the full-length FAS cDNA
B3: recombinant AIM protein (rAIM) of mouse labeled with HA-tag (ligand)
chain: ESPTKVQLVGGAHRCEGRVEVEHNGQWGTVCDDGWDRRDVAVVCRELNCGAVIQTPRGASYQPPASEQRVLIQGVDCNGTEDTLAQCELNYYVFDCSHEEDAGAQCENPDSDLLFIPEDVRLVDGPGHCQGRVEVLHQSQWSTVCKAGWNLQVSKVVCRQLGCGRALLTYGSCNKNTQGKGPIWMGKMSCSGQEANLRSCLLSRLENNCTHGEDTWMECEDPFELKLVGGDTPCSGRLEVLHKGSWGSVCDDNWGEKEDQVVCKQLGCGKSLHPSPKTRKIYGPGAGRIWLDDVNCSGKEQSLEFCRHRLWGYHDCTHKEDVEVICTDFDV
notes: also called rAIM-HA; AIM-HA; not shown: HA-tag

What all share (assay): co-immunoprecipitation of Flag-tagged FAS domains with AIM-HA in HEK293T cells
Assay [1] deals with B3.
The target of assay [2] is T1, keto acyl synthase (KS) domain of FAS ….
Assay [3] concerns the target T2, malonyl/acetyl transferase (MAT) domain ….

For B1, in assay [1], the binding result is reported as “no binding”.

Turning to B2, the binding result in assay [1] is given as “no binding”.

As for B3, the binding result in assay [2] and in assay [3] was “no binding” in each case.

These data come from patent US20130115220A1 (DAINIPPON SUMITOMO PHARMA, published 2013).
